# Assay results reported in paper PMC8679000, “Biochemical Characterizations of Human TMPK Mutations Identified in Patients with Severe Microcephaly: Single Amino Acid Substitutions Impair Dimerization and Abolish Their Catalytic Activity” (ACS Omega, 2021).
# B1: wild-type human deoxythymidylate kinase (TMPK) [human] / itself (parent)
# chain: MAARRGALIVLEGVDRAGKSTQSRKLVEALCAAGHRAELLRFPERSTEIGKLLSSYLQKKSDVEDHSVHLLFSANRWEQVPLIKEKLSQGVTLVVDRYAFSGVAFTGAKENFSLDWCKQPDVGLPKPDLVLFLQLQLADAAKRGAFGHERYENGAFQERALRCFHQLMKDTTLNWKMVDASKSIEAVHEDIRVLSEDAIRTATEKPLGELWK
# Variants of: B1
# Test: size-exclusion chromatography, protein concentration of fractions
# Conditions: with itself, 200 µg enzyme loaded, 0.4 mL fractions
# [1] = fraction F18 (monomer fraction)
# [2] = fraction F19 (monomer fraction)
# [3] = fraction F20 (monomer fraction)
Variant,screen value (fraction F15 (dimer fraction)) [mg/mL],screen value (fraction F16 (dimer fraction)) [mg/mL],screen value [1] [mg/mL],screen value [2] [mg/mL],screen value [3] [mg/mL]
chain 1 A99T,0.006,0.01,0.019,0.015,0.012
chain 1 D128N,0.004,0.005,0.016,0.019,0.012
chain 1 P81L,0.002,0.009,0.024,0.016,0.013
